How the values were obtained:
[1] = molecular target: T1, human IL-17A (construct not stated) (human, UniProt Q16552 24-155, limits assumed); assay: ELISA on coated huIL-17A, crude Fab extract
T1 construct: also called huIL-17A; human IL-17A biotin
T1 sequence: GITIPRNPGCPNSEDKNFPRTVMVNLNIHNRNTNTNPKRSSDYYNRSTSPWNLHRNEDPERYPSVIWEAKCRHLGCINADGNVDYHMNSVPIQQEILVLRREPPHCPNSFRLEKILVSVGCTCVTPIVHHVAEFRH

[2] = molecular target: T1, human IL-17A (construct not stated); assay: ELISA on coated huIL-17A, crude Fab extract, wash of at least 3 h
[3] = molecular target: T1, human IL-17A (construct not stated); assay: ELISA on coated huIL-17A, crude Fab extract, overnight with 200 nM XAB1 Fab as competitor
[4] = molecular target: T1, human IL-17A (construct not stated); assay: ELISA titration of purified Fab on plate-coated huIL-17A, normalized signal; x axis printed as log10 of Fab concentration (M)

Binder	Classic ELISA (normalized to XAB1 Fab) [1]	Off-rate ELISA (normalized to XAB1 Fab) [2]	Competition ELISA (normalized to XAB1 Fab) [3]	EC50 (read off the curve) [4]
MB435 (Fab, V domains shown, heavy chain C-terminal Flag tag) VH: EVQLVESGGDLVQPGGSLRLSCAASGFTFSSYWMSWVRQAPGKGLEWVANIKQDGSEKYYVDSVKGRFTISRDNAKNSLYLQMNSLRAEDTAVYYCARDRGSLYYWGQGTLVTVSS VL: AIQLTQSPSSLSASVGDRVTITCRPSQGINWELAWYQQKPGKAPKLLIYDASSLENGVPSRFSGSGSGTDFTLTISSLQPEDFATYYCQQFNSYPLTFGGGTKVEIK	2.7 ratio to XAB1 Fab	44.7 ratio to XAB1 Fab	44.6 ratio to XAB1 Fab	~2 nM
MB440 (Fab, V domains shown, heavy chain C-terminal Flag tag) VH: EVQLVESGGDLVQPGGSLRLSCAASGFTFSSYWMSWVRQAPGKGLEWVANIKQDGSEKYYVDSVKGRFTISRDNAKNSLYLQMNSLRAEDTAVYYCARDRGSLYYWGQGTLVTVSS VL: AIQLTQSPSSLSASVGDRVTITCRPSQGILWQLAWYQQKPGKAPKLLIYDASSLENGVPSRFSGSGSGTDFTLTISSLQPEDFATYYCQQFNSYPLTFGGGTKVEIK	2.8 ratio to XAB1 Fab	52.5 ratio to XAB1 Fab	54 ratio to XAB1 Fab	~0.6 nM
MB444 (Fab, V domains shown, heavy chain C-terminal Flag tag) VH: EVQLVESGGDLVQPGGSLRLSCAASGFTFSSYWMSWVRQAPGKGLEWVANIKQDGSEKYYVDSVKGRFTISRDNAKNSLYLQMNSLRAEDTAVYYCARDRGSLYYWGQGTLVTVSS VL: AIQLTQSPSSLSASVGDRVTITCRPSQGILWELAWYQQKPGKAPKLLIYDASSLENGVPSRFSGSGSGTDFTLTISSLQPEDFATYYCQQFNSYPLTFGGGTKVEIK	3.2 ratio to XAB1 Fab	48.9 ratio to XAB1 Fab	52.4 ratio to XAB1 Fab	~2 nM

Further lines, results first:

Classic ELISA (normalized to XAB1 Fab) [1]	Off-rate ELISA (normalized to XAB1 Fab) [2]	Competition ELISA (normalized to XAB1 Fab) [3]	EC50 (read off the curve) [4]	Binder
2.8 ratio to XAB1 Fab	43.9 ratio to XAB1 Fab	60 ratio to XAB1 Fab	~2 nM	MB468 (Fab, V domains shown, heavy chain C-terminal Flag tag; with N56Q formatted to IgG as XAB3) VH: EVQLVESGGDLVQPGGSLRLSCAASGFTFSSYWMSWVRQAPGKGLEWVANIKQDGSEKYYVDSVKGRFTISRDNAKNSLYLQMNSLRAEDTAVYYCARDRGSLYYWGQGTLVTVSS VL: AIQLTQSPSSLSASVGDRVTITCRPSQGIYWELAWYQQKPGKAPKLLIYDASSLENGVPSRFSGSGSGTDFTLTISSLQPEDFATYYCQQFNSYPLTFGGGTKVEIK
2.7 ratio to XAB1 Fab	34.2 ratio to XAB1 Fab	31.6 ratio to XAB1 Fab	~3 nM	MB463 (Fab, V domains shown, heavy chain C-terminal Flag tag) VH: EVQLVESGGDLVQPGGSLRLSCAASGFTFSSYWMSWVRQAPGKGLEWVANIKQDGSEKYYVDSVKGRFTISRDNAKNSLYLQMNSLRAEDTAVYYCARDRGSLYYWGQGTLVTVSS VL: AIQLTQSPSSLSASVGDRVTITCRPSQGIYFELAWYQQKPGKAPKLLIYDASSLENGVPSRFSGSGSGTDFTLTISSLQPEDFATYYCQQFNSYPLTFGGGTKVEIK
2.7 ratio to XAB1 Fab	34.9 ratio to XAB1 Fab	36.9 ratio to XAB1 Fab	~2 nM	MB464 (Fab, V domains shown, 30 stays I); heavy chain C-terminal Flag tag) VH: EVQLVESGGDLVQPGGSLRLSCAASGFTFSSYWMSWVRQAPGKGLEWVANIKQDGSEKYYVDSVKGRFTISRDNAKNSLYLQMNSLRAEDTAVYYCARDRGSLYYWGQGTLVTVSS VL: AIQLTQSPSSLSASVGDRVTITCRPSQGIIYQLAWYQQKPGKAPKLLIYDASSLENGVPSRFSGSGSGTDFTLTISSLQPEDFATYYCQQFNSYPLTFGGGTKVEIK
